Experimental data from the DeepSol protein solubility set.

Test: soluble on expression in E. coli; label from the status in PepcDB or PDB records

| Sequence | soluble on expression in E. coli |
| --- | --- |
| MKYRITTWLAAALMLSSLHATAASLSDIQVSNGDQQARITLSFVGEPEYSFTPQGKRLVALDIKQTGVLQGLPLQFSGSNLVKSIRAGTPQDTQTLRLLVDLTEDGKTRAVKQQNGANYTVVFTINAEAPPPPVVVKRADPPPVMPSRTTTPGRNPFSSSGHERQTVMTSSQPAMTNNQTVTRPAARTVSADDKVIIAIDAGHGGQDPGAIGPNGTKEKNVTIAIARKLRALLNADPQFKPVLTRDGDYFISVMGRSEVARKQNANFLVSIHADAAPNRDATGASVWVLSNRRANSEMAGWLEQHEKQSELLGGAGDVLANSQADPYLSQAVLDLQFGHSQRVGYDVATNVLSQLQRIGNLHKRRPEHASLGVLRSPDIPSILVETGFISNNGEERLLGSDDYQEQIAEAIYNGLRNYFMQHPLQSAPRGEAAQTASAAAPGGMLIN | not soluble |
| MSLAKTVLVTGASGFIGSHLVGRCLADGCRVKALVRKGNACIDSLRASGVEVIEGDVRDATAVDAAVRESDLVLHAAALTSDWGKMQEFIDINVGGTRNVCEASLRHGVGRLVHVSSFECFDHHLLGRIDEQTPYKARKQSYPDTKIGGTNEVWAAIKRGLSASILYPVWVYGPGDRTLFPLLADSILRRQLFFWARNAPMSMIYIDNLVDLTMLAASRPEAVGEAFMACDGEAITFEEVCRRVAVAIGSPVPSLHLPFGMVRSVAGVMEFVWRIAGSKKRPLLTRQAVDVLASRALADVSKARTMLGWQSHVPQEEGIRRTLEWLVTVDPARWKVKEGHHHHHH | soluble |
| MSLAQTPVMDVGTKSYISHQEQKMTATVEQIESWIVDVPTIRPHKLSMTTMGCQSLVIVRLTRSDGICGIGEATTIGGLSYGVESPEAISSAITHYLTPLLKGQPADNLNALTARMNGAIKGNTFAKSAIETALLDAQGKALGLPVSALLGGALQTALPVLWTLASGDTAKDIAEGEKLLAEGRHRAFKLKIGARELATDLRHTRAIVEALGDRASIRVDVNQAWDAATGAKGCRELAAMGVDLIEQPVSAHDNAALVRLSQQIETAILADEAVATAYDGYQLAQQGFTGAYALKIAKAGGPNSVLALARVAQAAGIGLYGGTMLEGTVGTVASLHAWSTLPLQWGTEMFGPLLLKDDIVSVPLTFADGQVALPQTPGLGVELDEDKLHFYTRQEGHHHHHH | soluble |
| SMDSRLQRIHAEIKNSLKIDNLDVNRCIEALDELASLQVTMQQAQKHTEMITTLKKIRRFKVSQVIMEKSTMLYNKFKNMFLVGEGDSVLEVLFQ | soluble |
| MRLRSMTKVLVLGARFGGLSAAYALKRLAGNKAEIKVINNTRFSYFRPALPHVATGVINENDVMVDLTKALPEKRINFQQGTVEKIDASGGLVYYTKPDGDKAEEDYDYLIIALGAHLGTELVKGWDKYGYSVCELDYALKLREKLKDFKGGTIAIGSGLFYQGKSPKPKVPENYVPVADAACEGPIFEMSLMLSGYFKKKGMLNKVKFVVFSPGEYLSDLSTMSRKIVREMYKQMGIELVDNFRIKEIRENEIADEAGKTIKADLTILIPPYTGNPALKNSTPDLIDDGGFVPTDLNMVSINYDNVYAVGDANSLTVPKLGYLAVKTGNIAAQHLATRLGVQVKVDQYYPTIICVADNPFEGFGIAVKDDTWYGGTTSIAAPSPINHIKKELFHKYFIWTKGDMALEKFLASWLEHHHHHH | soluble |
| MAASRDIFAPDFRRRPYWWEGYEPPECGEDTLPASADVAIVGGGYTGVCCALALREAGIEAVVLEAGRPGEGASTRSGGQVSGGVNVQKKALAAVGESAGQRAERLAARLRDAAASMAYVESLIERYAIECGWRRTGRLTTMWVPAHYQSWQARLDQLNACTGSQARMIPREELAAEIGSSVYHGAALIEHAGHLQPAQLYGGMLRAARDAGARVLGRTPVERIERRAGGYDVHTARGTVRAGQVVIATIGYTGANLGGLKRRIVPVCTHMIATEALPPDLAASLLPTNRAVSESRRVVNHYRLSPDGRRLLFGGRARFVPTDEATTARLLYRAMLKRFPQLAGTRITHSWGGNVAMTLDSMPHIGGADGLHYALGCNGSGVAMMSYLGHCVGRKIATQSGEPINAFDMGEIPGHPFYFGNPWFLFAIGSWYQARDAYDHWRARLEHHHHHH | soluble |
| MAVAANKRSVMTLFSSASDMYSHQVRIVLAEKGVSFEVELVDENNLPAELIELNPYKTVPTLVDRELALYDSKIIMEYLDERFPHPPLMPVYPVARGNSRLMIYRIERNWYSLAEKVVNGSPEVAENARNKLRNDLLTLGPVFAEFEYFMSEEFSLIDCYLAPLLWRLPVLGIDLIGPGSKELKVYMNRVFERDSFLASLTEAEREMRLAR | not soluble |
| MGSDKIHHHHHHMAKRKKDTMEFRFYELPQGESALVLCGESWKRVYGHDELHLHFHNLLEIGICREGDGNMYLDEDIYQYHDGDITFIPENFPHVTVSYGEVVNFWEYIFIDLRSVIEEMFPNNAAFQNDAVSTISKKAFMTNVYQSPVVAGYINSIIRETNEHKEYSQRTIKLLVQGIVIELLRKYDELPEEDNDVVKGTNMSQIATALDYMNKHYSETIKAGELSSLCNMSETHFRRLFESYINMPPMEYLNLIRVQKACELMKKTNEPMELIAQKCGFTTQSTFNRNFRKFLNTSPYQWKINPENYEHKLLNFRISALKGW | not soluble |
| MKNTQLLTSLRYVLLGALTVTTSVVQAESIAITNATVYTVAKKGVLFQATVMVDEGKITAVYGKDEVPESLSADTIIDAKERILTPGFIATHNLLGLVEVGAVSDTRDSSDKDADITFDASLAFNPKSTLIAYARKGGITSSLVMPYGGEDVITGQSFVVNLSGDFDSVIMPQNAVIVSLGASGKGSRATKLQTLSNELEDAQKALAKAEKVKASSKKEKEEKEAETPSRSELVLNELLSGDKPLIAYADRATDILALLKLKQKFNLNLILAGASDAVLVSDEIAKANVVVMMSAIDNLPSSFDSLHNSLTNVAKLTDAGVKVIISNSGESYNINQLRFDAGVAVANGVAATTALAAVTANVADSFNLNSGRIAVGKNADLVLWSSDPFEISTKVDAMWINGQAMSLKSRQDALRQRYIVETDMPRAYTK | not soluble |
| MPGHTSWDATFLEPAPPLPHPSECGQPCVSGQSQMFQHRTTNAQGPPPNRPMPRPPAGMPMMTSSHEHDYTNDYEDPEEMARSRGEGFSNHLLIKTTPPPQPHPNFNSYEMSMSQQRRSQQHQQPMAPPLSDCWGSGVHDSGVLHKNADGAYYIPSGSCKF | not soluble |
| MSLKSGTMVEKLASAKTIAFDKTGTITQGQLSVDQVQPINAGITAAELVGLAASVEQESSHILARSIVAYARKQDVPLKNITDLAEVSGAGVKAFVDGAEIRVGKKNFVTQESQETEKIDKTTIHISRNGTYLGRITFTDTVRPEAKETMEKLHQLHLQRILMLTGDQESVAETIAAEVGITEVHGECLPQDKLTILKELPKENHPVIMVGDGVNDAPSLAAADVGIAMGAHGATAASETADVVILKDDLSKVSQAVEIAQDTMKIAKEGHHHHHH | soluble |
| MRPYKRVLIKLSGGALADQTGNSFNSKRLEHIANEILSIVDLGIEVSIVIGGGNIFRGHLAEEWGIDRVEADNIGTLGTIINSLMLRGVLTSKTNKEVRVMTSIPFNAVAEPYIRLRAVHHLDNGYIVIFGGGNGQPFVTTDYPSVQRAIEMNSDAILVAKQGVDGVFTSDPKHNKSAKMYRKLNYNDIVRQNIQVMDQAALLLARDYNLPAHVFNFDEPGVMRRICLGEHVGTLINDDVSMLVREKLEHHHHHH | not soluble |
| MKMLTVENLSKSYGEKPLFDGLSFSIAEGQRAGIIGVNGTGKSTLLKIIAGAEIPDTGDMTHSRGYTISYLSQQPEFDEQLTVLEQVFHGDTPLIRLLRDYEKALLHIEKDPSNEKVQEQLFAVQQRMDAMSVWEANANAKSLLTKLGITDFTATVGNLSGGQKKRIAMAQCFIETPDLLILDEPTNHLDHETVEWLEEYLARYTGAVLLVTHDRYFLDRVTNRIFELDNGKLYSYEGNYSTFLEAKALREEQELAQESKRQNLYRRELAWIRRGAKARSTKQKARIQRFEELKGQEGPAAKQSVDIALSGSRLGKKVLELKDVTKKFGDKTVLNNFNHIVKPGDRIGIIGANGSGKSSLLNMLAGKISPDSGEIEVGQTVKIAYYTQENEEMNLNQRMIEYIKEIAEVIHTTDGKVIGASQMLERFLFPPHSHGTPLGKLSGGERRRLYLLRILMGEPNVLLLDEPTNDLDPQTLTVLEDYLEDFSGVVLTVSHDRYFLDKVVDELFIFTGEGEVREFLGSYTDYLEMEKTRELIEKAEVQKEKKVVEEAPKQQRKRKLSYNEQREWETIEDTIAELEEKLESIGEELANVGSDFTKAQELSEAQQKTEEELEKTMERWSELSDIVEGLK | not soluble |
| MGSDKIHHHHHHMKGAVTTDVEAGGLRGRMYASRATSDVRPRADAPTFVLIHGIGVSHRYLVRLHHVLAGVADTISIDLPGFGSTPRPDRQLMVADQAAFIHDVLDQAGVGLRVLVGHSMGAQFVLEAALQRPEQVPHVVLMGPVVDVRRRTLPRQILALTKDALLHETPGSNALVFSDYLRCGPLWYLKELRVMMNYRTEERIRGLTTPVMILRGASDPIATGEWCRILARRAPAGTLVEVPGCGHVVQHTGTAQVADAITGFTGLPGSGAPEQTVNRQ | not soluble |
| MNSELKARYKVLGSEKEHTKSETLTETLIEVIVNGDVEPGSKISEPELARKYQVSRGPLREALMRLEGLGLIERIPHVGARVTTFSPAKLIELYSVREALEGMAARLAARHITQEELLSLEMLLSTHSKHIDQVEGASYFHQHGDFDFHYRIIQASRNSKLISLLCDELYHLLRMYRYQSPRAQSRPNEALTEHKFILEAIRNRDEELAEMLMRRHISGSRKLIQSQIIHTESLDKD | not soluble |
| MAAPLGGMFSGQPPGPPQAPPGLPGQASLLQAAPGAPRPSSSTLVDELESSFEACFASLVSQDYVNGTDQEEIRTGVDQCIQKFLDIARQTECFFLQKRLQLSVQKPEQVIKEDVSELRNELQRKDALVQKHLTKLRHWQQVLEDINVQHKKPADIPQGSLAYLEQASANIPAPLKPTLEHHHHHH | not soluble |
| GPGSMEFIMNSVYAIDPIYLLMSAVAQQMLAMAWFDCIVGQIDRYYVAADKGVRRVEHAITRYPGIMVSATTFACSLLRSLVVLTVVSMCNCSTLYQYQSAAMVAVMIGMMRVHRTFSCHRPIQIFVTETGYEMAAAMTAAVVCYYMKKYNF | soluble |
| MGSDKIHHHHHHMLTVNNVSLRYGGRKLFEDVNLKFTPGNCYGIIGANGAGKSTFLKILSGEIEPNTGDVSVDSNTRISVLKQDHFQYDEYEVLETVIMGNERLYSIMKEKDALYAKPDFSEEDGIKASTLEGEFAELNGWEAESEAATLLQGLGISTELHSKKMSELIGGEKVKVLLAQALFGNPGILLLDEPTNHLDIKSIAWLEEFLIDFEGTVIVVSHDRHFLNKVCTMIADVDYGKITLYVGNYDFWYKSSTLALEMTKDQNKKKEEKIKELKDFIARFSANASKSKQATSRKKMLDKLNLEDIKPSNRKYPFIGFKPEREPGNDILTVENLSKTIDGEKVLNNVSFIVSKDDKIALVGDNEIAQTTLFKILSGEMEPDSGSYKWGITITNAYFPKDNSEYFNDCDLSLVDWLRQYSEEKSETYIRGFLGRMLFSGEEALKKASVLSGGEKVRCMLAKTMLTNANFLMFDQPTNHLDLESITALNNGLTNYKSNLMFTSHDHEFIQTIANRIIEITNDGIIDRKCTYDEYLEIQ | not soluble |
| MHKKADQPFMKEKRGSKLTVRAMPIQSKNLQISGICDVVEFVQDSEGIELSGVSGSYKAFPVEYKRGKPKKGDEDIVQLVAQAMCLEEMLVCRIDKGYLFYNEIKHRVEVPITDALRDKVVQMAKEMHHYYENRHTPKVKTGPFCNNCSLQSICLPKLMNKRSVKRYIEGRLSELEHHHHHH | not soluble |
